# Measured values taken from US7842469B2, “Bioluminescence resonance energy transfer (BRET) systems and methods of use thereof” (Stanford University, priority 2005, dated 2010).
# B1: C124A/S130A: RLuc mutant C124A/S130A (protein)
# chain: MASKVYDPEQRKRMITGPQWWARCKQMNVLDSFINYYDSEKHAENAVIFLHGNAASSYLWRHVVPHIEPVARCIIPDLIGMGKSGKSGNGSYRLLDHYKYLTAWFELLNLPKKIIFVGHDWGAALAFHYAYEHQDKIKAIVHAESVVDVIESWDEWPDIEEDIALIKSEEGEKMVLENNFFVETMLPSKIMRKLEPEEFAAYLEPFKEKGEVRRPTLSWPREIPLVKGGKPDVVQIVRNYNAYLRASDDLPKMFIESDPGFFSNAIVEGAKKFPNTEFVKVKGLHFSQEDAPDEMGKYIKSFVERVLKNEQ
# B2: C124A/K136R: RLuc mutant C124A/K136R (protein)
# chain: MASKVYDPEQRKRMITGPQWWARCKQMNVLDSFINYYDSEKHAENAVIFLHGNAASSYLWRHVVPHIEPVARCIIPDLIGMGKSGKSGNGSYRLLDHYKYLTAWFELLNLPKKIIFVGHDWGAALAFHYSYEHQDRIKAIVHAESVVDVIESWDEWPDIEEDIALIKSEEGEKMVLENNFFVETMLPSKIMRKLEPEEFAAYLEPFKEKGEVRRPTLSWPREIPLVKGGKPDVVQIVRNYNAYLRASDDLPKMFIESDPGFFSNAIVEGAKKFPNTEFVKVKGLHFSQEDAPDEMGKYIKSFVERVLKNEQ
# B3: C124A/A143M: RLuc mutant C124A/A143M (protein)
# chain: MASKVYDPEQRKRMITGPQWWARCKQMNVLDSFINYYDSEKHAENAVIFLHGNAASSYLWRHVVPHIEPVARCIIPDLIGMGKSGKSGNGSYRLLDHYKYLTAWFELLNLPKKIIFVGHDWGAALAFHYSYEHQDKIKAIVHMESVVDVIESWDEWPDIEEDIALIKSEEGEKMVLENNFFVETMLPSKIMRKLEPEEFAAYLEPFKEKGEVRRPTLSWPREIPLVKGGKPDVVQIVRNYNAYLRASDDLPKMFIESDPGFFSNAIVEGAKKFPNTEFVKVKGLHFSQEDAPDEMGKYIKSFVERVLKNEQ
# Columns and labels:
# [1] = Serum stability in mouse serum at 37° C.; format: in vitro ADME; conditions: mouse serum, 37° C., mono-exponential fit
# Procedure: (§1) Serum stability measurements were done by mixing 0.5 μl dilute Luciferase with either 20 μl mouse serum or 50 μl rat serum (Equitech-Bio, Kerrville, Tex.) placing the sample in a 37° C. incubator, and removing aliquots for activity testing. To calculate serum half-lives, mono-exponential decay curves were fit to the serum stability data using a Nelder/Mead Simplex non-linear least squares minimization algorithm provided by the Octave numerical programming language. Emission spectra at ambient temperature were measured using a Triax 320 (Horiba Jobin Yvon, Edison, N.J.), which incorporates an optical grating device with a liquid N2 cooled CCD detector.
# [2] = Quantum yield measurements; format: biochemical; conditions: for Quantum Yield (%) bc: benzyl-coelenterazine; for Quantum Yield (%) bdc: bisdeoxycoelenterazine; for Quantum Yield (%) cp: coelenterazine-cp; for Quantum Yield (%) n: coelenterazine-n; for Quantum Yield (%) native: native coelenterazine
# Procedure: For quantum yield measurements, separate 1 μl drops of protein (about 2 pm) and substrate (0.2 pm) were placed in a tube, 100 μl of 100 mM sodium phosphate buffer (pH 7) was injected by the luminometer to mix, and the total light output was integrated (generally 5-10 min). For coelenterazine-n, the protein amount was increased 10 fold and the acquisition time lengthened to insure the reaction approached completion.
# [3] = Bioluminescence emission spectra; format: physicochemical; conditions: emission spectrum with native coelenterazine
# Procedure: as §1
# [4] = Serum stability in rat serum at 37° C.; format: in vitro ADME; conditions: mono-exponential fit
# Procedure: as §1
# [5] = Luciferase activity of purified RLuc mutants (light output integrated over 10 s, luminometer); format: biochemical; conditions: relative to native enzyme; for Activity (relative to RLuc) bc: benzyl-coelenterazine; for Activity (relative to RLuc) bdc: bisdeoxycoelenterazine; for Activity (relative to RLuc) cp: coelenterazine-cp; for Activity (relative to RLuc) n: coelenterazine-n; for Activity (relative to RLuc) native: native coelenterazine
# Excerpt: Luminometer Calibration: Light measurements were made using a Turner 20/20 and later a Turner 20/20n luminometer (Turner Designs, Sunnyvale, Calif.). The luminometers were calibrated to absolute units (photons/s) using the luminol light standard performed in dimethyl sulfoxide (DMSO). No corrections were applied for the spectral sensitivity of the luminometer, as the spectral peak of luminol chemiluminescence in DMSO (486 nm) is close to the spectral peak of Renilla Luciferase bioluminescence (482 nm).
# Characterization of Renilla Luciferase Mutants: Luciferase activity was measured by adding 1 μl of sample (diluted as necessary in EB containing 1% HSA) to 100 μl room temperature 100 mM sodium phosphate buffer (pH 7), manually adding 1 μl of 0.5 μg/μl coelenterazine or analog, manually mixing, and reading for 10 s in a luminometer. The time between the addition of the luciferin and the start of measurement was approximately 4 s.
Molecule,Serum τ1/2 (h) mouse [1] [h],Quantum Yield (%) bc [2] [%],Quantum Yield (%) bdc [2],Quantum Yield (%) cp [2] [%],Quantum Yield (%) n [2] [%],Quantum Yield (%) native [2] [%],Wavelength (nm) mean [3] [nm],Wavelength (nm) peak [3] [nm],Serum τ1/2 (h) rat [4] [h],Activity (relative to RLuc) bc [5],Activity (relative to RLuc) bdc [5],Activity (relative to RLuc) cp [5],Activity (relative to RLuc) n [5],Activity (relative to RLuc) native [5]
B1,18,3.4 ± 0.04,(6.7 ± 0.3) × 10^−3%,5.0 ± 0.1,5.9 ± 0.2,5.3 ± 0.1,498,482,14,1.4,2.6,1.7,1.4,1.7
B2,12,3.3 ± 0.1,(7.1 ± 0.3) × 10^−3%,5.1 ± 0.1,6.0 ± 0.1,5.4 ± 0.1,498,482,11,2.1,2.6,1.9,1.9,2.5 ± 0.3
B3,30,3.5 ± 0.1,(6.3 ± 0.7) × 10^−3%,4.8 ± 0.1,5.8 ± 0.2,5.2 ± 0.3,497,480,29,1.3,1.6,0.95,1.5,1.7
